These results are taken from patent publication US20180016306A1.

Substitutions are numbered along the chain they refer to. Numbers in names are those of the source.

To fix the notation:
B1: LB5t-T16H.4d (designed binder)
chain: KEETPETPETDSEEQVTIKENIYFEDGTVQHATFKGTFAEATAEAYRYADLLSKEHGKYTADLEDGGYTINIRFAGKEKTPEEPKEQVTIKENIYFEDGTVQHATFKGTFAEATAEAYRYADLLSKEHGKYTADLEDGGYTINIRFAGKEKTPEEPKEQVTIKENIYFEDGTVQHATFKGTFAEATAEAYRYADLLSKEHGKYTADLEDGGYTINIRFAGKEKTPEEPKEQVTIKENIYFEDGTVQHATFKGTFAEATAEAYRYADLLSKEHGKYTADLEDGGYTINIRFAGKKVDEKPEEC
B2: LB5t-T16L.1d (designed binder)
chain: GPLGSEQVTIKENIYFEDGTVQLATFKGTFAEATAEAYRYADLLSKEHGKYTADLEDGGYTINIRFAG
B3: LB1t-Wild.1d (protein)
chain: VTIKANLIFANGSTQTAEFKGTFEKATSEAYAYADTLKKDNGEYTVDVADKGYTLNIKFA
B4: LB1t-E18D.1d (designed binder)
chain: B3 chain with E18D
B5: LB5t-T16D.1d (designed binder)
chain: B2 chain with L23D
B6: LB5t-T18D.1d (designed binder)
chain: B2 chain with L23T, T25D
B7: LB5t-T16A.1d (designed binder)
chain: B2 chain with L23A
B8: LB5t-T18H.1d (designed binder)
chain: B2 chain with L23T, T25H
B9: LB5t-T18Q.1d (designed binder)
chain: B2 chain with L23T, T25Q
B10: LB5t-A17H.1d (designed binder)
chain: B2 chain with L23T, A24H
B11: LB5t-Q15H.1d (designed binder)
chain: B2 chain with Q22H, L23T
B12: LB5t-T16H.1d (designed binder)
chain: B2 chain with L23H

For the first assay, the target named is aRSV-Fab (Fab fragment of anti-RSV monoclonal IgG Palivizumab, Synagis). Description: affinity chromatography, aRSV-Fab on LB5t-T16H.4d-immobilised cellulose carrier, linear pH gradient 5.0 to 2.4, pH at elution peak top.
In turn, B1 came in with an Elution pH of 3.66 pH.

A further assay shares this target. Description: affinity chromatography, peptide on aRSV-Fab-immobilised column, linear pH gradient, pH at elution peak top.
For the molecule B2, the Dissociation pH stood at 3.65 pH.
Same read-out and setting: for B3 the value was 2.7 pH; for B4, 2.95 pH.

For another assay the target is unchanged. Description: affinity chromatography, peptide on aRSV-Fab-immobilised column, linear pH gradient 5.5 to 2.5, pH at elution peak top.
As for B5, the Dissociation pH was found to be 3.6 pH.
Same read-out and setting: for B6 the value was 3.85 pH; for B7, 3.6 pH; for B8, 3.9 pH.
In the case of B9, the Dissociation pH worked out at 3.65 pH.
On the same count and under the same terms, for B10 the value was 3.9 pH; for B11, 3.9 pH; for B12, 3.9 pH.

For the next assay the target is unchanged. Description: SPR (Biacore 3000), aRSV-Fab on CM5 chip, peptide flowed, 25 C, pH 7.4, 1:1 fit.
A word on the koff: it is the first-order rate constant of dissociation. A higher koff goes with fast dissociation. As usually defined, the kon is the rate constant with which the complex forms. B5 came in with a Ka of 1.44e+07 M⁻¹, a koff of 0.0265 s⁻¹ and a kon of 381000 M⁻¹ s⁻¹.
On the same counts, the results for B6 are 6.79e+06 M⁻¹, 0.0467 s⁻¹ and 317000 M⁻¹ s⁻¹.
The molecule B7 registered a Ka of 1.87e+07 M⁻¹, a koff of 0.0225 s⁻¹ and a kon of 421000 M⁻¹ s⁻¹.
Regarding B8, the Ka came out at 1.17e+07 M⁻¹, the koff was determined as 0.036 s⁻¹ and the kon is 422000 M⁻¹ s⁻¹.
In turn, B9 displayed a Ka of 1.26e+07 M⁻¹, a koff of 0.0296 s⁻¹ and a kon of 373000 M⁻¹ s⁻¹.
On the same counts, the results for B10 are 1.08e+06 M⁻¹, 0.0738 s⁻¹ and 80000 M⁻¹ s⁻¹.
For B11, in that order: 6.7e+06 M⁻¹, 0.0485 s⁻¹ and 325000 M⁻¹ s⁻¹.
For B12, in that order: 2.69e+07 M⁻¹, 0.0159 s⁻¹ and 428000 M⁻¹ s⁻¹.
